The values that follow come from article PMC7565984, “A Phosphorylation-Induced Switch in the Nuclear Localization Sequence of the Intrinsically Disordered NUPR1 Hampers Binding to Importin” (Biomolecules, 2020).

For assay [1], the target named is T1, human importin α3 (intact, with the IBB domain) (human, UniProt O00629 1-521).
T1 construct: human importin α3 (KPNA4), intact protein with the IBB domain; codon-optimized synthetic DNA in the vector pHTP1; also called Impα3; KPNA4; source: E. coli BL21 (DE3), purified (as for ΔImpα3)
T1 sequence (looked up): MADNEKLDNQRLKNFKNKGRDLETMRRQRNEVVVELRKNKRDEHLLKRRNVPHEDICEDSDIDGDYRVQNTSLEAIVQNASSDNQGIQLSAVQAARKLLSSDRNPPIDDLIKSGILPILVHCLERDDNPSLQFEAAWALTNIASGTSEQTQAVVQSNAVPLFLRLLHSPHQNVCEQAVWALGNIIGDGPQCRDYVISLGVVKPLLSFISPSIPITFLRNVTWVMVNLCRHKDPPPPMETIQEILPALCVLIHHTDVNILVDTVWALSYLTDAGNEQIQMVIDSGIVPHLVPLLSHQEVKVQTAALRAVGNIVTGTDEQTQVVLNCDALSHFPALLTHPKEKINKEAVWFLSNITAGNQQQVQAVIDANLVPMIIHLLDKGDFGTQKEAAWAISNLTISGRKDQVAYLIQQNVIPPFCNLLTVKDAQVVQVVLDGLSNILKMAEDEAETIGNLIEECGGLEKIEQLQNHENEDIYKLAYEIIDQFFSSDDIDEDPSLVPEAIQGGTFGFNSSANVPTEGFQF
The assay can be described thus: ITC; Impα3 or ΔImpα3 (10–20 μM) in the cell, NLS-NUPR1 peptide (150–300 μM) in the syringe; Tris 50 mM, pH 8; 298 K; single ligand binding site (1:1) model, n gives the fraction of binding-competent protein. Particulars: both partners purified.

The target in assay [2] is T2, truncated importin α3 without the IBB domain (residues 64-521) (human, UniProt O00629 64-521).
T2 construct: human importin α3 (KPNA4) without the IBB domain, residues 64-521; also called ΔImpα3; ΔImportin
T2 sequence (looked up): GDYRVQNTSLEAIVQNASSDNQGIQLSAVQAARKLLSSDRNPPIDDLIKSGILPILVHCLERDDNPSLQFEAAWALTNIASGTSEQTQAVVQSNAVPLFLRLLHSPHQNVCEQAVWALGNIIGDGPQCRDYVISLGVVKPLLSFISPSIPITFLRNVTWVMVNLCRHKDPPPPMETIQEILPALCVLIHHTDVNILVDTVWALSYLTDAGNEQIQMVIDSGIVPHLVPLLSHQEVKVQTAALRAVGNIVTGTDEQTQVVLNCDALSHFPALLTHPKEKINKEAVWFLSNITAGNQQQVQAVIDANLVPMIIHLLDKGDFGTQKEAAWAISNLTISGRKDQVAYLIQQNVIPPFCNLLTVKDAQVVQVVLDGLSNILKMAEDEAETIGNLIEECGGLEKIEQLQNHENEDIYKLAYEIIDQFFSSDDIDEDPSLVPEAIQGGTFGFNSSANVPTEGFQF
Described as above. Particulars: both partners purified.

B1: NLS-NUPR1 peptide K65A (peptide)
peptide: Ac-YTNRPSPGGHERALVTKLQNSE-NH2
notes: tyrosine introduced at the N terminus for absorbance measurements; not a residue of NUPR1; also called K65A peptide; Lys65Ala; source: synthetic peptide (NZYtech, purity 95%)
For the molecule B1, in assay [1], the Kd (usually the constant that tells how readily two partners part at equilibrium) was found to be 3.9 µM; the dH was -2.8 kcal/mol; the stoichiometry N (usually the number of molecules, sites or subunits per partner or assembly) is 1.4. In addition, in assay [2], the affinity, expressed as Kd, was 2.7 µM; the dH is -10.2 kcal/mol; the “stoichiometry N” value was found to be 1.4.

B2: NLS-NUPR1 peptide K65AT68E (peptide)
peptide: Ac-YTNRPSPGGHERALVEKLQNSE-NH2
notes: tyrosine introduced at the N terminus for absorbance measurements; not a residue of NUPR1; also called K65AT68E peptide; source: synthetic peptide (NZYtech, purity 95%)
Consider B2, for which the Kd in assay [1] amounted to 21 µM; in assay [2] it was 14 µM. Besides, the dH is -7.8 kcal/mol in assay [1] and -17.9 kcal/mol in assay [2].

B3: NLS-NUPR1 peptide T68EK69A (peptide)
peptide: Ac-YTNRPSPGGHERKLVEALQNSE-NH2
notes: tyrosine introduced at the N terminus for absorbance measurements; not a residue of NUPR1; also called T68EK69A peptide; source: synthetic peptide (NZYtech, purity 95%)
As to B3, the Kd in assay [1] and in assay [2] was 17 µM throughout. Besides, the dH in assay [1] was -7.5 kcal/mol; in assay [2], -21.2 kcal/mol.

B4: NLS-NUPR1 peptide T68E (phospho-mimetic) (peptide)
peptide: Ac-YTNRPSPGGHERKLVEKLQNSE-NH2
notes: tyrosine introduced at the N terminus for absorbance measurements; not a residue of NUPR1; also called T68E peptide; Thr68Glu; source: synthetic peptide (NZYtech, purity 95%)
In assay [1], B4 returned a Kd of 22 µM and a dH of -11.1 kcal/mol. In assay [2], this molecule showed a Kd of 12 µM and a dH of -17.5 kcal/mol.

B5: NLS-NUPR1 peptide K65AT68EK69A (peptide)
peptide: Ac-YTNRPSPGGHERALVEALQNSE-NH2
notes: tyrosine introduced at the N terminus for absorbance measurements; not a residue of NUPR1; also called K65AT68EK69A peptide; triple mutant; source: synthetic peptide (NZYtech, purity 95%)
For the molecule B5, the dH in assay [1] is -16.3 kcal/mol; in assay [2], -28.5 kcal/mol. In addition, the affinity in assay [2], expressed as Kd, was 24 µM.
